Measurements published in paper PMC9770967, “Native holdup (nHU) to measure binding affinities from cell extracts” (Science Advances, 2022).
One block for each molecule: values may come before it.

Assays:
Format in all cases: binding, human
[1] = target: SNX27_PDZ; assay: nHU-MS, SNX27_PDZ bait, total Jurkat extracts, series 2 (Exploris MS); details: SNX27_PDZ&Jurkat (Exploris)
Text: (§1) To further establish the repeatability and robustness of the nHU-MS assay, we repeated the experiments using a different mass spectrometer and six different PDZ domain baits taken from SCRIB (PDZ_1 and PDZ_2), discs large MAGUK scaffold protein 1 (DLG1, PDZ_1, and PDZ_2), Tax1 binding protein 3 (TAX1BP3), and SNX27 (fig. S3B and table S1). […] Of the studied baits, the PDZ domain of SNX27 turned out to be the most promiscuous with 103 statistically significant interaction partners (while 180 SNX27 binding partners were identified in total on the basis of the three independent nHU-MS experiments).
(§2) For saturating streptavidin resin with biotinylated peptides or biotin, 50 μl of streptavidin resin was mixed with biotin or peptide at 40 to 60 μM concentration in 6 to 6.5 resin volume for 60 min. To saturate streptavidin resin with biotinylated proteins, 50 μl of streptavidin resin (Streptavidin Sepharose High Performance, Cytiva) was mixed with biotinylated MBP or MBP-PDZ at 40 to 50 μM concentration in 20× resin volume for 60 min. After saturation, resins were washed a single time [10 resin volume, holdup buffer: 50 mM tris (pH 7.5), 300 mM NaCl, and 1 mM TCEP, 0.22-μm filtered] and were depleted with biotin (10 resin volume, 10 min, holdup buffer supplemented with 100 μM biotin). Last, resins were washed two times (10 resin volume, holdup buffer).
(§3) For single-point nHU experiments carried out at ~10 μM bait concentration, 50 μl of saturated streptavidin resin was mixed with 200 μl of cell lysate (2 mg/ml). Titration experiments were carried out by mixing control and bait-saturated resin and keeping the total resin volume constant; e.g., ~5 μM bait concentration can be achieved by mixing 25 μl of bait-saturated streptavidin resin with 25 μl of control resin and 200 μl of cell lysate (2 mg/ml). Control and bait-saturated resins were prepared in larger amounts, and a serial dilution was prepared with these presaturated resins to achieve different resin ratios.
(§4) Unless specified elswhere, the nHU mixture was incubated at 4°C for 2 hours. After the incubation ended, the resin was separated from the supernatant by a brief centrifugation (15 s, 2000 g). Then, half of the supernatant was removed by pipetting without any delay to avoid any resin contamination; e.g., 100 μl of supernatant is collected if 200 μl of cell lysate was used as analyte. Alternatively, the supernatant can be centrifuged an additional time to clarify it further, removing any possible resin contamination. In principle, the separation of the supernatant should be as fast as possible since any delay can perturb the equilibrium. […] Alternatively, the resin can be separated from the supernatant using filter plates (e.g., various products of Millipore, Burlington, MA) or spin columns (e.g., Pierce spin cups—cellulose acetate filter from Thermo Fisher Scientific, Waltham, MA) to achieve faster separation.
(§5) The nHU samples were precipitated with trichloroacetic acid (TCA) 20% overnight at 4°C and centrifuged at 14,000 rpm for 10 min at 4°C. The protein pellets were washed twice with 1 ml of cold acetone and air-dried. […]
(§6) Samples were analyzed using an Ultimate 3000 nano-RSLC coupled in line via a nano-electrospray ionization source, with an LTQ-Orbitrap ELITE mass spectrometer (Thermo Fisher Scientific, San Jose, CA) or with the Orbitrap Exploris 480 mass spectrometer (Thermo Fisher Scientific, Bremen, Germany) equipped with a high field asymmetric ion mobility spectrometry (FAIMS) module. […]

[2] = target: SCRIB_PDZ_1; assay: nHU-MS, SCRIB_PDZ_1 bait, total Jurkat extracts (Exploris MS); details: SCRIB_PDZ_1&Jurkat (Exploris)
Text: as §1, §2, §3, §4
The nHU samples were precipitated with trichloroacetic acid (TCA) 20% overnight at 4°C and centrifuged at 14,000 rpm for 10 min at 4°C. The protein pellets were washed twice with 1 ml of cold acetone and air-dried. The protein extracts were solubilized in 8 M urea, reduced with 5 mM TCEP for 30 min, and alkylated with 10 mM iodoacetamide for 30 min in the dark. Double digestion was performed at 37°C with 500 ng of endoproteinase Lys-C (Wako, Richmond, USA) for 4 hours, followed by fourfold dilution and an overnight digestion with 500 ng of trypsin (Promega, Charbonnieres les Bains, France). Peptide mixtures were then desalted on a C18 spin-column and dried on a speed vacuum.
as §6

[3] = target: SCRIB_PDZ_2; assay: nHU-MS, SCRIB_PDZ_2 bait, total Jurkat extracts (Exploris MS); details: SCRIB_PDZ_2&Jurkat (Exploris)
Text: as §1, §2, §3, §4, §5, §6

[4] = target: full-length SNX27; assay: nHU-MS, recombinant full-length SNX27 bait, total Jurkat extracts; details: apparent, Fig. 4D, n = 6
Description: The empty His6-AviTag-MBP-TEV vector was used to produce biotinylated MBP for control experiments. Proteins were coexpressed with BirA biotin ligase (PET21a-BirA, Addgene, no. 20857) in Escherichia coli BL21(DE3) cells. At isopropyl-β-D-thiogalactopyranoside (IPTG) induction (1 mM IPTG at 18°C overnight), 50 μM biotin was added to the media. Harvested cells were lysed in a buffer containing 50 mM tris (pH 7.5), 150 to 300 mM NaCl, 50 μM biotin, 2 mM β-mercaptoethanol, cOmplete EDTA-free protease inhibitor cocktail (Roche, Basel, Switzerland), 1% Triton X-100, and trace amount of deoxyribonuclease, ribonuclease, and lysozyme. Lysates were frozen at −20°C before further purification steps. Lysates were sonicated and centrifuged for clarification. Expressed proteins were captured on in-house prepacked Ni-IDA (Protino Ni-IDA Resin, Macherey-Nagel, Duren, Germany) columns and were washed with at least 10 column volumes of cold wash buffer [50 mM tris (pH 7.5), 150 mM NaCl, and 2 mM β-mercaptoethanol] before elution with 250 mM imidazole. The Ni elution was collected directly on a preequilibrated amylose column (amylose high flow resin, New England Biolabs, Ipswich, MA). Amylose column was washed with 5 column volumes of cold wash buffer before fractionated elution in a buffer containing 25 mM Hepes (pH 7.5), 150 mM NaCl, 1 mM TCEP, 10% glycerol, 5 mM maltose, and cOmplete EDTA-free protease inhibitor cocktail. The concentration of proteins was determined by their ultraviolet absorption at 280 nm before aliquots were snap-frozen in liquid nitrogen and stored at −80°C.
as §2, §3
Unless specified elswhere, the nHU mixture was incubated at 4°C for 2 hours. After the incubation ended, the resin was separated from the supernatant by a brief centrifugation (15 s, 2000 g). Then, half of the supernatant was removed by pipetting without any delay to avoid any resin contamination; e.g., 100 μl of supernatant is collected if 200 μl of cell lysate was used as analyte. Alternatively, the supernatant can be centrifuged an additional time to clarify it further, removing any possible resin contamination. […]

B2: FUS (protein, UniProt P35637 1-526, looked up)
RNA-binding protein FUS: MASNDYTQQATQSYGAYPTQPGQGYSQQSSQPYGQQSYSGYSQSTDTSGYGQSSYSSYGQSQNTGYGTQSTPQGYGSTGGYGSSQSSQSSYGQQSSYPGYGQQPAPSSTSGSYGSSSQSSSYGQPQSGSYSQQPSYGGQQQSYGQQQSYNPPQGYGQQNQYNSSSGGGGGGGGGGNYGQDQSSMSSGGGSGGGYGNQDQSGGGGSGGYGQQDRGGRGRGGSGGGGGGGGGGYNRSSGGYEPRGRGGGRGGRGGMGGSDRGGFNKFGGPRDQGSRHDSEQDNSDNNTIFVQGLGENVTIESVADYFKQIGIIKTNKKTGQPMINLYTDRETGKLKGEATVSFDDPPSAKAAIDWFDGKEFSGNPIKVSFATRRADFNRGGGNGRGGRGRGGPMGRGGYGGGGSGGGGRGGFPSGGGGGGGQQRAGDWKCPNPTCENMNFSWRNECNQCKAPKPDGPGGGPGGSHMGGNYGDDRRGGRGGYDRGGYRGRGGDRGGFRGGRGGGDRGGFGPGKMDSRGEHRQDRRERPY
pKapp (nHU-MS) [2]: 4.571
pKapp (nHU-MS) [3]: 4.538

B4: WASH2: component of the WASH complex (protein)
chain: MTPVRMQHSLAGQTYAVPLIQPDLRREEAVQQMADALQYLQKVSGDIFSRISQQVEQSRSQVQAIGEKVSLAQAKIEKIKGSKKAIKVFSSAKYPAPERLQEYGSIFTGAQDPGLQRRPRHRIQSKHRPLDERALQEKLKDFPVCVSTKPEPEDDAEEGLGGLPSNISSVSSLLLFNTTENLYKKYVFLDPLAGAVTKTHVMLGAETEEKLFDAPLSISKREQLEQQVPENYFYVPDLGQVPEIDVPSYLPDLPGIANDLMYIADLGPGIAPSAPGTIPELPTFHTEVAEPLKVDLQDGVLTPPPPPPPPPPAPEVLASAPPLPPSTAAPVGQGARQDDSSSSASPSVQGAPREVVDPSGGRATLLESIRQAGGIGKAKLRSMKERKLEKKKQKEQEQVRATSQGGHLMSDLFNKLVMRRKGISGKGPGAGEGPGGAFARVSDSIPPLPPPQQPQAEEDEDDWES
pKapp [4]: 5.47

The remaining lines, values ahead:

pKapp (nHU-MS) [1]: 4.859
pKapp (nHU-MS) [2]: 4.6996
B1: DNAJC16 (protein, UniProt Q9Y2G8 26-782, looked up)
DnaJ homolog subfamily C …: LDFDPYRVLGVSRTASQADIKKAYKKLAREWHPDKNKDPGAEDKFIQISKAYEILSNEEKRSNYDQYGDAGENQGYQKQQQQREYRFRHFHENFYFDESFFHFPFNSERRDSIDEKYLLHFSHYVNEVVPDSFKKPYLIKITSDWCFSCIHIEPVWKEVIQELEELGVGIGVVHAGYERRLAHHLGAHSTPSILGIINGKISFFHNAVVRENLRQFVESLLPGNLVEKVTNKNYVRFLSGWQQENKPHVLLFDQTPIVPLLYKLTAFAYKDYLSFGYVYVGLRGTEEMTRRYNINIYAPTLLVFKEHINRPADVIQARGMKKQIIDDFITRNKYLLAARLTSQKLFHELCPVKRSHRQRKYCVVLLTAETTKLSKPFEAFLSFALANTQDTVRFVHVYSNRQQEFADTLLPDSEAFQGKSAVSILERRNTAGRVVYKTLEDPWIGSESDKFILLGYLDQLRKDPALLSSEAVLPDLTDELAPVFLLRWFYSASDYISDCWDSIFHNNWREMMPLLSLIFSALFILFGTVIVQAFSDSNDERESSPPEKEEAQEKTGKTEPSFTKENSSKIPKKGFVEVTELTDVTYTSNLVRLRPGHMNVVLILSNSTKTSLLQKFALEVYTFTGSSCLHFSFLSLDKHREWLEYLLEFAQDAAPIPNQYDKHFMERDYTGYVLALNGHKKYFCLFKPQKTVEEEEAIGSCSDVDSSLYLGESRGKPSCGLGSRPIKGKLSKLSLWMERLLEGSLQRFYIPSWPELD

pKapp [4]: 4.94
B3: Strumpellin: component of the WASH complex (protein, UniProt Q12768 1-1159, looked up)
WASH complex subunit 5: MLDFLAENNLCGQAILRIVSCGNAIIAELLRLSEFIPAVFRLKDRADQQKYGDIIFDFSYFKGPELWESKLDAKPELQDLDEEFRENNIEIVTRFYLAFQSVHKYIVDLNRYLDDLNEGVYIQQTLETVLLNEDGKQLLCEALYLYGVMLLVIDQKIEGEVRERMLVSYYRYSAARSSADSNMDDICKLLRSTGYSSQPGAKRPSNYPESYFQRVPINESFISMVIGRLRSDDIYNQVSAYPLPEHRSTALANQAAMLYVILYFEPSILHTHQAKMREIVDKYFPDNWVISIYMGITVNLVDAWEPYKAAKTALNNTLDLSNVREQASRYATVSERVHAQVQQFLKEGYLREEMVLDNIPKLLNCLRDCNVAIRWLMLHTADSACDPNNKRLRQIKDQILTDSRYNPRILFQLLLDTAQFEFILKEMFKQMLSEKQTKWEHYKKEGSERMTELADVFSGVKPLTRVEKNENLQAWFREISKQILSLNYDDSTAAGRKTVQLIQALEEVQEFHQLESNLQVCQFLADTRKFLHQMIRTINIKEEVLITMQIVGDLSFAWQLIDSFTSIMQESIRVNPSMVTKLRATFLKLASALDLPLLRINQANSPDLLSVSQYYSGELVSYVRKVLQIIPESMFTSLLKIIKLQTHDIIEVPTRLDKDKLRDYAQLGPRYEVAKLTHAISIFTEGILMMKTTLVGIIKVDPKQLLEDGIRKELVKRVAFALHRGLIFNPRAKPSELMPKLKELGATMDGFHRSFEYIQDYVNIYGLKIWQEEVSRIINYNVEQECNNFLRTKIQDWQSMYQSTHIPIPKFTPVDESVTFIGRLCREILRITDPKMTCHIDQLNTWYDMKTHQEVTSSRLFSEIQTTLGTFGLNGLDRLLCFMIVKELQNFLSMFQKIILRDRTVQDTLKTLMNAVSPLKSIVANSNKIYFSAIAKTQKIWTAYLEAIMKVGQMQILRQQIANELNYSCRFDSKHLAAALENLNKALLADIEAHYQDPSLPYPKEDNTLLYEITAYLEAAGIHNPLNKIYITTKRLPYFPIVNFLFLIAQLPKLQYNKNLGMVCRKPTDPVDWPPLVLGLLTLLKQFHSRYTEQFLALIGQFICSTVEQCTSQKIPEIPADVVGALLFLEDYVRYTKLPRRVAEAHVPNFIFDEFRTVL
